Results taken from PMC8539536, “Generation of a Soluble Form of Human Endoglin Fused to Green Fluorescent Protein” (International Journal of Molecular Sciences, 2021).

Target: the molecule itself
Assay: SDS-PAGE under reducing and nonreducing conditions with Western blot; 3-day culture medium of CHO-K1 transfectants separated under reducing or nonreducing conditions; immunodetection with anti-GFP antibodies; positions of dimer and monomer compared

B1: endoglin–GFP fusion protein (extracellular domain of human endoglin fused with EGFP, from pEGFP–N1/Eng.EC) (domain or fragment, UniProt P17813 26-586, looked up)
chain: ETVHCDLQPVGPERGEVTYTTSQVSKGCVAQAPNAILEVHVLFLEFPTGPSQLELTLQASKQNGTWPREVLLVLSVNSSVFLHLQALGIPLHLAYNSSLVTFQEPPGVNTTELPSFPKTQILEWAAERGPITSAAELNDPQSILLRLGQAQGSLSFCMLEASQDMGRTLEWRPRTPALVRGCHLEGVAGHKEAHILRVLPGHSAGPRTVTVKVELSCAPGDLDAVLILQGPPYVSWLIDANHNMQIWTTGEYSFKIFPEKNIRGFKLPDTPQGLLGEARMLNASIVASFVELPLASIVSLHASSCGGRLQTSPAPIQTTPPKDTCSPELLMSLIQTKCADDAMTLVLKKELVAHLKCTITGLTFWDPSCEAEDRGDKFVLRSAYSSCGMQVSASMISNEAVVNILSSSSPQRKKVHCLNMDSLSFQLGLYLSPHFLQASNTIEPGQQSFVQVRVSPSVSEFLLQLDSCHLDLGPEGGTVELIQGRAAKGNCVSLLSPSPEGDPRFSFLLHFYTVPIPKTGTLSCTVALRPKTGSQDQEVHRTVFMRLNIISPDLSGCTSKG
notes: then a linker of 19 amino acids and 239 residues of GFP, 844 amino acids in all; Disulfide-linked dimer of ~275 kDa; glycosylated; also called Eng–GFP; source: CHO-K1, stably transfected with pEGFP–N1/Eng.EC, secreted, in culture medium; not shown: EGFP, C-terminal, kept
Which “stoichiometry N” value does the source give for B1 here?
Its value is 2.
